Assay: yeast display, Sf9 membrane polyspecificity reagent, FACS + sequencing; frameworks hold sequencing errors
Outline: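 Synthetic nanobody libraries on Saccharomyces cerevisiae BJ5465 were galactose-induced for 36–48 hours, stained 1 hour at 4 °C with 10% biotinylated, detergent-solubilized Sf9 membrane reagent and enriched on streptavidin microbeads. FACS then separated cells into low and high (top ~1%) gates by anti-HA (expression) and streptavidin (reagent binding) fluorescence. Genes were colony-PCR amplified, MiSeq 2 × 250 sequenced and CDR-length filtered. A clone's polyreactivity label is that of its gate of origin.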

| Sequence | polyreactivity (PSR sort gate) |
| --- | --- |
| QVHLVESGGWLVQAGGSLRLSCAASGLTFYNYAMGWYRPAPGKEREFVAAISRSGGTTYYADSVKGRFTISRDNAKYTVYLQMISLKPEDTAVYYCNAQWWRYWPSQVIFDYWGQGSQVTVSS | high polyreactivity |
| QVQLVESGGGLVQAGGSLRLSSAASGFIFPDYAMGWYRQAPGKERELVAAISFRDGSTYYADSVKGRFTISRDNAKNTVYLQMNSLKPEDTAVYFCAVRQVNWFGIGYEDDYWGQGTQVTVSS | low polyreactivity |
| QDQLVESGGGLVQAGGSLRLSCAASGRTFHSYVMGWYRQAPGKERELVAAISRSGGNTYYADSVKGRFTISRDNAKNTVYLQMNSLKPEDTAVYYCAAALSAYVKWDYYYWGQGTQVTVSS | low polyreactivity |
| QVQLVESGGGLVQAGGSLRLSCAASGSIIRTYAMGWYRQAPGKERELVAAISGSGSRTYYADSVKGRFTISRDNAKNTVYLQMNSLKPEDSAVYYCAADPGTPRYQFLWYGYWGQGTQVTVSS | low polyreactivity |
| QVQIVESGGVIVQAGGSLRLSCAASGRIISYYTMGWYRQAPGKERELVAAISVSSGRTYYADSVKGRFTISRDNAKNTVYLQMNSLKPEDTAVYYCDAKYLARSAYDYWGQGTQVTVSS | high polyreactivity |
| QVQLVESGGGLVQAGGSLRLSCAASGRIFVKYSMGWYRQAPGKERELVAAISKSGGSTYYADSVKGRFTISRDNAKNTVYLQMNSLKPEDTAVYYCATRSRDQYSVSYRLDYWGQGTQVTVSS | low polyreactivity |
| QVQLVESGGGLVQAGGSLRLSCAASGFTFARNTMGWYRQAPGKEREFVAVITNRGGSTYYADSVKGRFTISRDNAKNTVYLQMNSLKPEDTAVYYCAARKKHSGYGRGNYWGQGTQVTVSS | high polyreactivity |
| QVQLVESGGGLVQAGGSLRLSCAASGRIFVINAMGWYRQAPGKERELVADITWSGGSTYADSVKGRFTISRDNAKNTVYLQMNSLKPEETAVYYCAKQRGGQPRSSTYYYWGQGTQVTVSS | high polyreactivity |
| QVQLVESGGGLVQAGGSLRLSCAASGRIFFYYAMGWYRQAPGKEREMVAAISWSGSSTYYADSVKGRFTISRDNAKNTVYLQMNSLKPEDTAVYYCAADYYIDYFYYDYWGQGTQVTVSS | high polyreactivity |
| QVQLVESGGGLVQAGGSLRLSCAASGRTFQSNGMGWYRQAPGKERELVAAITWSSGTTYYADSVKGRFTISRDNAKNTVYLQMNSLKPEDTAVYYCAADWGHWNSLYYSGFGYWGQGTQVTVSS | low polyreactivity |
| QVQLVESGGALVQAGGSLRLSCAASGRTLESNAMGWYRQTPGKERELVAAISTIGGTYYADSVKGRFTLSRDNAKNTVYLQMNSLKPEDTAVYYCAKVWYDHSYIPIYDSWGQGTQVTVSS | low polyreactivity |
| QVQLVESGGGLVQAGGSLRLSCSASGIIFGGNAMGWYRQAPGKERELVAGISSRGGSTYYADSVKGRFTISRDNAKNTVYLQMNSLKPEDTAVYYCAAVSSRRPGYEYYYWGQGTQVTVSS | high polyreactivity |
| QVQLVESGGGLVQAGGSLRLSCAASGSIFVSYTMGWYRQPPGKERELVAAISGGGASTYYADSVKGRFTISRDNAKNTVYLQMNSLKPEDTAVYYCNASRKRSYDYWGQGTQVTVSS | low polyreactivity |
| QVQLEESRGGLVHAGGSLRLSCAASGYSFYIYAMGWYRQAPGKERELVAAISSSGGRTYYADSVKGRFTISRDNAKNTVYLQMNSLKPEDTAVYYCNALYRYGWLYAPKYNSCGQGTQVTVSS | high polyreactivity |
| QVQLVESGGGLVQAGGSLRLSCAASGRIFYPYTMGWYRQAPGKERELVAAISSGSRTNYADSVKGRFTISRDNAKNTVYLQMNSLKPEDTAVYYCAAAAYSYKRVYQTFTFGYWGQGTQVTVSS | high polyreactivity |
| QVQLVESGGGLVQAGGSLRLSCAASGRTFANNAMGWYRQAPGKERELVARISNSGSTNYADSVKGRFTISRDNAKNTVYLQMNSLKPEDTAVYYCAARIVRLYSRYDYWGQGTQVTVSS | low polyreactivity |
| QVQLVESGGGLVQAGGSLRLSCAACGIIFVYYAMGWYRQAPGKERELVAAISSSGARTYYADSVKGRFTISRDNAKNTVYLQMNSLKPEDTAVYYCAARETRTKPIFYGYNYWGQGTQVTVSS | high polyreactivity |
| QVQLVESGGGLVQAGGSLRLSCAASGSTFWVNAMGWYRQAPGKERELVAAISERGGRTYYADSVKGRFTISRDNAKNTVYLQMNSLKPEDTAVYYCNRVTRSNVDYWGQGTQVTVSS | high polyreactivity |
| QVQLVESGGGLVQAGGSLRLSCAASGSTFSRNVMGWYRQAPGKERELVAAISRGGSTNYADSVKGRFTISRENAKNTVYLQMNSLKPEDTAVYYCNAPRLGKFYYWGQGTQVTVSS | low polyreactivity |
| QVQLVESGGGLVQAGGSRRLICAASGSIFYTNAMGWYRPAPAKERELVARISFSDGTTNYADSVKGRFTISRDNAKNTVYVQMNSLKPEDTAVYYCATDLYGRPVRFDYWGQGTQVTVSS | low polyreactivity |
| QVQLVESGGGLVQAGGSLSLSCAASGRIFRRYAMGWYRQAPGKERELVAAISRGGSTYYADSVKGRFTISRDNAKNTVYLQMISLKPEDTAVYYCAAYSQSTSFGGYDSWGQGTQVTVSS | high polyreactivity |
| QVQLVESGGGLVQAGGSLRLSCAASGFIFRRYVMGWYRQAPGKERELVAAISNGGGRTYYADSVKGRFTISRDNAKNTVYLQMNSQKPEDTAVYYCAAYPRGPLAPDYDYWGQGTQVSVSS | high polyreactivity |

| Sequence | polyreactivity (PSR sort gate) |
| --- | --- |
| QVQLVESGGGLVQAGGSLRLSCAASGSNYRNAMGWYRQAPGKERELVAAISSSGGRTYYADSVKGRFTISRDNAKNTVYLKMNSLKPEDTAVYYCAKVGPYWSRGKYWGQGTQVTVSS | high polyreactivity |
| QVQLVESGGGLVQAGGSLRLTCAASGIIFRVYAMGWYRQATGKERELVAAISQRGGSTYYADSVKGRFTISRDNAKNTVYLLMNSLKPEDTAVYYCAATAPAAAYRARYGYDYWGQGTQVTVSS | high polyreactivity |
| QVQLVESGGGLVQAGGSLRLSCAASGSIFYYYAMGWYRQAPGKERELVAAISYGGGSTYYADSVKGRFTISRDNAKNTVYLQMNSLKPEDTAVYYCAVQEVVGWYLYDYWGQGTQVTVSS | high polyreactivity |
| QVQLVESGGGLVQAGGSLRLSCAASGSIFYWYAMGWYRQAPGKERELVAGITGRGGSTYYADSVKGRFTISRDNAKNTVYLQMNSLKPEDSAVYYADFVKYGKYYQRYDYWAQGTQVTVSS | high polyreactivity |
| QVQLVESGGGLVQAGGSLRLSCAASGLTFVDNAMGWYRQAPGQERELVAAITKRGGRTYYADSVKGRFTISRDNAKNTVYLQMNSLKPEDTAVNYCARESGNDSSRRLDYWGQGSQVTVSS | low polyreactivity |
| QVQLVESGGGLVQAGGSLRLSSAASGRIFYGYAMGWYRQAPGKERELVAGISYRGARTYYADSVKGRFTISRDNAKNTVYLQMNSLKPEDTAVYYCNAVPYYPFAFGALDYWGQGTQVTVSS | high polyreactivity |
| QVQLVESGGGLVQAGGSLRLICAASGSTFYIYAMGWYRQAPGKERELGATISSTGSTHYADSVKGRFTISRDNAKNTVYLQMNSLKPEDTAVYYCNRVYFGRYSRRDHWGQGTQVTVSS | high polyreactivity |
| QVQLVEAGGGLVQAGGSLRLTCAASGPIFLSKAMGWYRQAPGTERELVAAINSGGNTDYADSVKARFTISRDNEKNTFYLQMNSLKPEDTAVYYCAADAFSWDHDYWGQGTQVTVSS | low polyreactivity |
| QVQLVESGGCLVQAGGSLRLSCAASGSTFKIYAMGWYRQAPWKERELVAAISWRGGRTYYADSVKGRFTISRDNAKNTVYLQMNSLKPEDTAVYYCDKGTRQGLEFWGQGTQVTVSS | high polyreactivity |
| QVQLVESGGGLVQAGGSLRLSCAASGLIFLPYAMGWYRQAPGKERELVAAIRWSDDSTYYADSVKGRFTILRDNAKNTVYFQMNCLKPEDTAVYYCNAYVYRPSYIFNYYYEYDYWGQGTQVTVSS | high polyreactivity |
| QVQLVESGGGLVQAGGSLRLSCAASGRTFDNNAMGWYRQAPGKEREFVAAITTGVGSTYADSVKGRFTISRDNAKNTVYLQMNSLKPEDTAVYYCAADSYWLFDAYDYWGQGTQVTVSS | low polyreactivity |
| QVQLVESGGGLVQAGGSLRLSCAASGSIFKRNAKGWYRQAPGKERGLVAGNSQSGSSTRYADSVKGRFTISRDNAKNTVYLQMNSLKPEDTAVYYCAAELSLAYTYDYWGQGTQVTVSS | high polyreactivity |
| QVQLEESGGGLVQAGGSLRLSCAASGSIFGFYMGWDRQAPRKEREMVAAISGSGGNTYYADSVKGRFTISRDNAKNTVYLQMNSQKPEDNAVYYCAARGYVWNIGRYYWGQGTQVTVSW | high polyreactivity |
| QVQLVESGGGLVQAGGSLRLSCAASGFTLHSYAMGWYRQAPWKERELVAAITRSGGGTYYADSVKGRFTISRDNAKNTVYLQMNSLKPEDTAVYYCAARFGGQYQHDYWGQGTQVTVSS | high polyreactivity |
| QVQLVESGGGLVQAGGSLRLSCAASGSTFVGNAMGWYRQAPGKERELVAGISSGGSSNYADSVKGRFTISRDNAKNTVYLQMNSLKREDTAVYYCNAVPGVGEMDYWGQGTQVTVSS | low polyreactivity |
| QVQLVESGGGLVQAGGSLRLSCAASGRTFKYYAMGWARQAPGKERELVATISYNGASTYYADSVKGRFTSSRDNAKNSVYLQMNSQKPEDTAVYYCAAAYLWRGRLGYWGQGTQVTVSS | high polyreactivity |
| QVQLEESGGGLLQAGGSLRLSCAATGSTFVTYAMGWYRQAPGKERELVAAISSGGGNTYYADSVKGRFTISRDNAMNSVYLQMHSLKPEDTAVYLCAADNPRSEYDYWGQGTQVTVSA | high polyreactivity |
| QVQLVESGGGLVQAGGSLRLSCAASGNTFYPYAMGWYRQAPGKERELVAAISFSSGSTYYADSVKGRFTISRDNAKNTVYLQMNSLKPEETAVYYCAAEANGNFAWWEYYYWGQGTQVTVSS | high polyreactivity |
| QVQLVESGGGLVQAGGSLRLSCAASGRIIYTNALGWYRQAPGKERELVAAINRSGGITYYADSVKGRFTISRDNAKNTVYLQMNSLKPEDTAVYYCAKDYSWASYNHDYWGQGTQVTVSS | low polyreactivity |
| QVQLVESGGGLVQAGGSLRLICAASGRIFLWNAMGWYRQAPGKEREFVATISWNDAISYYADSVKGRFTISRDNAKNSVYLQMNSLKPEDTAVYYCNVDPKIVLSFGYDYWGQGTQVTVSS | low polyreactivity |
| QVQLVESGGGLVQAGGSLRLSCAASGRTCYNTMGWYRQAPGKERELVAAISRGGITNYADSVKGRFTISRDSAKKTGYLQMNRLKPEDTAVYYCNAEPKRYYYYYKFDYWGQGTQVTVSS | high polyreactivity |

Source: the nanobody polyreactivity screen of Harvey et al. (2022)
